According to patent US12076390 (Dana-Farber, dated 2024):

Molecular target: HA of A/Vietnam/1203/04 on pseudotyped virus (H5-VN04 pseudovirus) (influenza A virus A/Vietnam/1203/04 …)
Assay: cell-based or functional assay

B1: 3I14 VLD94N IgG1 (antibody, V domains shown)
VH: QVQLLESGGGVVQPGRSLRLSCAASGFTFSNYGMHWVRQAPGKGLEWVAIISFDGSKKYYANSVKGRSTISRDNSKNTLSLQMNSLGPEDTALYYCAKLPSPYYFDSRFVWVAASAFHFWGQGILVTVSS
VL: NFMLTQPPSASGTPGQRVTISCSGSSSNIGGNTVHWFQQLPGTAPKLLIYTNSLRPSGVPDRFSGSKSGTSASLAISGLQSEDEADYYCAAWDNSLNGQVFGGGTKLTVL
Question: Which “IC50, neutralization of H5-VN04 pseudovirus” value does the source give for B1 here?
Answer: 8.65 ng/mL
